Results taken from US20150174076A1, “MUCOADHESIVE DEVICES FOR DELIVERY OF ACTIVE AGENTS” (Entrega, Inc., priority 2012, published 2015).

Tested on: Caco-2 monolayers
Assay: Transport of FITC-insulin across Caco-2 monolayer
Type: in vitro ADME, human
Description: Caco-2 cell line HTB-37 (American Type Culture Collection, Rockville, Md.), derived from human colon cells, was used for all experiments. Cells were maintained at 37° C. in DMEM supplemented with 25 IU/ml of penicillin, 25 mg/L of streptomycin, 250 μg/L of amphotericin B and 100 ml/L of fetal bovine serum. Monolayers were grown on BD Biocoat™ collagen filter supports (Discovery Labware, Bedford. Mass.). […] At the end of the growth period, the integrity of the cell monolayer was confirmed by transepithelial electrical resistance (TEER) measurements (Millicell-ERS voltohmmeter, Millipore. Billerica, Mass.). Only monolayers with TEER values over 300 Ω cm^2 were used for further experimentation. A solution of FITC-insulin in DMEM was placed on Caco-2 monolayers at various concentrations and samples were collected from the basolateral side and analyzed for fluorescence. To determine insulin transport from wafers, FITC-insulin-containing wafers were placed on Caco-2 monolayers. Samples were taken from the basolateral side and analyzed for insulin concentration.

## insulin free in solution: solution of FITC-insulin in DMEM placed on Caco-2 monolayers
  transport of insulin across Caco-2 monolayers: dose-dependent
